The record followed here is article PMC6793842.

The labels stand for the following.
B1: unnamed (parent)
chain 1: FENAIKKTKNQENNLTLLPIKSTEEEKDDIKNGKDIKKEIDNDKENIKTNNAKDHSTYIKSYLNTNVNDGLKYLFIPSHNSFIKKYSVFNQINDGMLLNEKNDVKNNEDYKNVDYKNVNFLQYDFKELSNYNIANSIDILQEKEGHLDFVIIPHYTFLDYYKHLSYNSIYHKYSTHGKYIAVDAFIKKINERYDQVKSKCNDIKNDLIATIKKLEHPYDINNKNDDSYRYDISEEIDDKSEETDDETEEVEDSIQDTDSNHTPSNKKKNDLMNRTFKKMMDEYNTKKKKLIKCIKNHENDFNKICMDMKNYGTNLFEQLSCYNNNFCNTNGIRYHYDEYIHKLILSVKSKNLNKDLSDMTNILQQSELLLTNLNKKMGSYIYIDTIKFIHKEMKHIFNRIEYHTKIINDKTKIIQDKIKLNIWRTFQKDELLKRILDMSNEYSLFITSDHLRQMLYNTFYSKEKHLNNIFHHLIYVLQMKFNDVPIKMEYFQTYKKNKPLTQ
chain 2: EPGTVFTTVEDLGSKILLTCSLNDSATEVTGHRWLKGGVVLKEDALPGQKTEFKVDSDDQWGEYSCVFLPEPMGTANIQLHGPPRVKAVKSSEHINEGETAMLVCKSESVPPVTDWAWYKITDSEDKALMNGSESRFFVSSSQGRSELHIENLNMEADPGQYRCNGTSSKGSDQAIITLRVRSHLAAL

The variants in the assay derive from B1. Put plainly: SPR. Conditions: read off a plot; for response (response units): with partner chain of the complex shown, plateau of the highest curve of four 2-fold serial dilutions (600 to 75 nM); for screen value: with partner chain of the complex shown;.

Regarding chain 1 FENAIKKTKNQENNLTLLPIKSTEEEKDDIKNGKDIKKEIDNDKENIKTNNAKDHSTYIKSYLNTNVNDGLKYLFIPSHNSFIKKYSVFNQINDGMLLNEKNDVKNNEDYKNVDYKNVNFLQYDFKELSNYNIANSIDILQEKEGHLDFVIIPHYTFLDYYKHLSYNSIYHKYSTHGKYIAVDAFIKKINERYDKVKSKCNDIKNDLIATIKKLEHPYDINNKNDDSYRYDISEEIDDKSEETDDETEEVEDSIQDTDSNHTPSNKKKNDLMNRTFKKMMDEYNTKKKKLIKCIKNHENDFNKICMDMKNYGTNLFEQLSCYNNNFCNTNGIRYHYDEYIHKLILSVKSKNLNKDLSDMTNILQQSELLLTNLNKKMGSYIYIDTIKFIHKEMKHIFNRIEYHTKIINDKTKIIQDKIKLNIWRTFQKDELLKRILDMSNEYSLFITSDHLRQMLYNTFYSKEKHLNNIFHHLIYVLQMKFNDVPIKMEYFQTYKKNKPLTQ [chain 1 Q195K], the response (response units) came to 360 and the screen value worked out at 2.4 s.
For chain 1 FENAIKKTKNQENNLTLLPIKSTEEEKDDIKNGKDIKKEIDNDKENIKTNNAKDHSTYIKSYLNTNVNDGLKYLFIPSHNSFIKKYSVFNQINDGMLLNEKNDVKNNEDYKNVDYKNVNFLQYDFKELSNYNIANSIDILQEKEGHLDFVIIPHYTFLDYYKHLSYNSIYHKYSTHGKCIAVDAFIKKINERYDQVKSKCNDIKNDLIATIKKLEHPYDINNKNDDSYRYDISEEIDDKSEETDDETEEVEDSIQDTDSNHTPSNKKKNDLMNRTFKKMMDEYNTKKKKLIKCIKNHENDFNKICMDMKNYGTNLFEQLSCYNNNFCNTNGIRYHYDEYIHKLILSVKSKNLNKDLSDMTNILQQSELLLTNLNKKMGSYIYIDTIKFIHKEMKHIFNRIEYHTKIINDKTKIIQDKIKLNIWRTFQKDELLKRILDMSNEYSLFITSDHLRQMLYNTFYSKEKHLNNIFHHLIYVLQMKFNDVPIKMEYFQTYKKNKPLTQ [chain 1 Y179C], in that order: 130 and 1.5 s.
With chain 1 FENAIKKTKNQENNLTLLPIKSTEEEKDDIKNGKDIKKEIDNDKENIKTNNAKDHSTYIKSYLNTNVNDGLKYLFIPSHNSFIKKYSVFNQINDGMLLNEKNDVKNNEDYKNVDYKNVNFLQYDFKELSNYNIANSIDILQEKEGHLDFVIIPHYTFLDYYKHLSYNSIYHKYSTHGKYIAVDAFIKKINETYDQVKSKCNDIKNDLIATIKKLEHPYDINNKNDDSYRYDISEEIDDKSEETDDETEEVEDSIQDTDSNHTPSNKKKNDLMNRTFKKMMDEYNTKKKKLIKCIKNHENDFNKICMDMKNYGTNLFEQLSCYNNNFCNTNGIRYHYDEYIHKLILSVKSKNLNKDLSDMTNILQQSELLLTNLNKKMGSYIYIDTIKFIHKEMKHIFNRIEYHTKIINDKTKIIQDKIKLNIWRTFQKDELLKRILDMSNEYSLFITSDHLRQMLYNTFYSKEKHLNNIFHHLIYVLQMKFNDVPIKMEYFQTYKKNKPLTQ [chain 1 R192T], the response (response units) came out at 180 and the screen value was determined as 2.3 s.
For chain 1 FENAIKKTKNQENNLTLLPIKSTEEEKDDIKNGKDIKKEIDNDKENIKTNNAKDHSTYIKSYLNTNVNDGLKYLFIPSHNSFIKKYSVFNQINDGMLLNEKNDVKNNEDYKNVDYKNVNFLQYDFKELSNYNIANSIDILQEKEGHLDFVIIPHYTFLDYYKHLSYNSIYHKSSTHGKYIAVDAFIKKINERYDQVKSKCNDIKNDLIATIKKLEHPYDINNKNDDSYRYDISEEIDDKSEETDDETEEVEDSIQDTDSNHTPSNKKKNDLMNRTFKKMMDEYNTKKKKLIKCIKNHENDFNKICMDMKNYGTNLFEQLSCYNNNFCNTNGIRYHYDEYIHKLILSVKSKNLNKDLSDMTNILQQSELLLTNLNKKMGSYIYIDTIKFIHKEMKHIFNRIEYHTKIINDKTKIIQDKIKLNIWRTFQKDELLKRILDMSNEYSLFITSDHLRQMLYNTFYSKEKHLNNIFHHLIYVLQMKFNDVPIKMEYFQTYKKNKPLTQ [chain 1 Y173S], in that order: 260 and 2.3 s.
For chain 1 FENAIKKTKNQENNLTLLPIKSTEEEKDDIKNGKDIKKEIDNDKENIKTNNAKDHSTYIKSYLNTNVNDGLKYLFIPSHNSFIKKYSVFNQINDGMLLNEKNDVKNNEDYKNVDYKNVNFLQYDFKELSNYNIANSIDILQEKEGHLDFVIIPHYTFLDYYKHLSYNSIYHKYSTYGKYIAVDAFIKKINERYDQVKSKCNDIKNDLIATIKKLEHPYDINNKNDDSYRYDISEEIDDKSEETDDETEEVEDSIQDTDSNHTPSNKKKNDLMNRTFKKMMDEYNTKKKKLIKCIKNHENDFNKICMDMKNYGTNLFEQLSCYNNNFCNTNGIRYHYDEYIHKLILSVKSKNLNKDLSDMTNILQQSELLLTNLNKKMGSYIYIDTIKFIHKEMKHIFNRIEYHTKIINDKTKIIQDKIKLNIWRTFQKDELLKRILDMSNEYSLFITSDHLRQMLYNTFYSKEKHLNNIFHHLIYVLQMKFNDVPIKMEYFQTYKKNKPLTQ [chain 1 H176Y], in that order: 340 and 2.4 s.
In the case of chain 1 FENAIKKTKNQENNLTLLPIKSTEEEKDDIKNGKDIKKEIDNDKENIKTNNAKDHSTYIKSYLNTNVNDGLKYLFIPSHNSFIKKYSVFNQINDGMLLNEKNDVKNNEDYKNVDYKNVNFLQYHFKELSNYNIANSIDILQEKEGHLDFVIIPHYTFLDYYKHLSYNSIYHKYSTHGKYIAVDAFIKKINERYDQVKSKCNDIKNDLIATIKKLEHPYDINNKNDDSYRYDISEEIDDKSEETDDETEEVEDSIQDTDSNHTPSNKKKNDLMNRTFKKMMDEYNTKKKKLIKCIKNHENDFNKICMDMKNYGTNLFEQLSCYNNNFCNTNGIRYHYDEYIHKLILSVKSKNLNKDLSDMTNILQQSELLLTNLNKKMGSYIYIDTIKFIHKEMKHIFNRIEYHTKIINDKTKIIQDKIKLNIWRTFQKDELLKRILDMSNEYSLFITSDHLRQMLYNTFYSKEKHLNNIFHHLIYVLQMKFNDVPIKMEYFQTYKKNKPLTQ [chain 1 D124H], the response (response units) turned out to be 220 and the screen value is 2.6 s.
